B1: scFv; the commonest letter at each place (parent)
chain 1: EVKLDETGGGLVQPGRPMKLSCVASGFTFSDYWMNWVRQSPEKGLEWVAQIRNKPYNYETYYSDSVKGRFTISRDDSKSSVYLQMNNLRVEDMGIYYCTGSYYGMDYWGQGTSVTVS
chain 2: DVVMTQTPLSLPVSLGDQASISCRSSQSLVHSNGNTYLRWYLQKPGQSPKVLIYKVSNRFSGVPDRFSGSGSGTDFTLKISRVEAEDLGVYFCSQSTHVPWTFGGGTKLEIK

Key:
fluorescein = variants of: B1; assay: Kd (Tite-Seq); settings: with fluorescein; format: scFv 4-4-20, heavy + light
[1] = variants of: B1; assay: yeast surface expression (ratio to wild type); higher = more expressed; settings: format: scFv 4-4-20, heavy + light

Variant	Kd (fluorescein) [µM]	yeast surface expression [1]
chain 1 M105D	≥ 10	0.695
chain 1 M105N	0.0233	0.844
chain 1 M34N W36Y	≥ 10	0.542
chain 1 D106C	2.17	0.955
chain 1 D106A	2.96	0.694
chain 1 D106I	≥ 10	0.577
chain 1 D106G	≥ 10	0.655
chain 1 F29D Y32C	≥ 10	0.924
chain 1 D31N N35S V37A	≥ 10	0.656
chain 1 G100T Y103E	≥ 10	1.28
chain 1 F29A M34R	≥ 10	1.01
chain 1 F29A M34G	≥ 10	0.656
chain 1 D31S V37H	9.02	0.644
chain 1 M34R V37Q	0.205	0.276
chain 1 F29I S30E	0.00343	0.929
chain 1 S30W N35I	≥ 10	0.743
chain 1 S30W N35V	≥ 10	0.273
chain 1 F29G W36M	≥ 10	0.478
chain 1 F29V W36L	≥ 10	0.332
chain 1 N35S V37E	≥ 10	0.574
chain 1 M34P V37Q	2.23	2.03

Variant	Kd (fluorescein) [µM]	yeast surface expression [1]
chain 1 D31Y	0.00334	0.729
chain 1 G100L W108Q	≥ 10	0.477
chain 1 S30P N35L	≥ 10	0.652
chain 1 F29G S30E	≥ 10	1
chain 1 F29Q S30D Y32A	≥ 10	0.934
chain 1 F29H W33R	≥ 10	0.182
chain 1 M34S W36Q	≥ 10	0.147
chain 1 M105C D106S	3.37	0.728
chain 1 S30I W33Y V37P	7.33	0.0571
chain 1 S30I W36V V37Q	≥ 10	0.525
chain 1 D31Y W33F V37H	≥ 10	0.788
chain 1 S101F G109S	≥ 10	0.424
chain 1 S30D N35Q	≥ 10	0.883
chain 1 S101D Y107E	≥ 10	1.03
chain 1 G100V M105S	≥ 10	0.855
chain 1 G100S G104W	≥ 10	0.425
chain 1 S30H M34F	0.0015	0.945
chain 1 D106Q W108G	≥ 10	0.384
chain 1 F29A V37P	≥ 10	0.153
chain 1 D31E W36Q	≥ 10	0.326
chain 1 D31E W36H	≥ 10	0.658

Variant	Kd (fluorescein) [µM]	yeast surface expression [1]
chain 1 G100D G109H	≥ 10	0.602
chain 1 N35R W36R	≥ 10	0.425
chain 1 S101C Y107T	≥ 10	0.62
chain 1 G104V G109W	≥ 10	1.57
chain 1 S30A M34Y	0.00361	0.977
chain 1 F29W S30V N35H	≥ 10	0.547
chain 1 M34R W36P	≥ 10	1.27
chain 1 G100F G109K	≥ 10	0.265
chain 1 G100W D106S W108L	≥ 10	0.243
chain 1 D31C W36G	≥ 10	0.738
chain 1 G100Y D106I	≥ 10	0.398
chain 1 D31R M34S	≥ 10	0.507
chain 1 S30I W36P V37E	≥ 10	0.93
chain 1 M105D W108S	≥ 10	0.458
chain 1 S101D D106R W108I	0.00251	0.452
chain 1 S30F Y32Q	≥ 10	0.653
chain 1 G104H W108R	≥ 10	0.272
chain 1 D106G Y107S	≥ 10	0.474
chain 1 N35Q W36M	≥ 10	0.504

Continued, in another order:

Kd (fluorescein) [µM]	Variant	yeast surface expression [1]
≥ 10	chain 1 Y102H D106G	0.856
≥ 10	chain 1 Y103E G109I	0.277
0.00158	chain 1 Y102W Y107F	0.61
0.0944	chain 1 Y102W Y107S	0.557
≥ 10	chain 1 W36T V37M	0.422
≥ 10	chain 1 Y32G M34E	0.194
≥ 10	chain 1 Y32G M34N	0.613
6.27	chain 1 Y103C M105I	0.621
0.00561	chain 1 V37S	0.673
≥ 10	chain 1 W33Q N35Y	0.315
≥ 10	chain 1 Y32H V37Q	0.372
≥ 10	chain 1 W108C G109E	0.262
0.266	chain 1 T28S Y32S	0.966
≥ 10	chain 1 S101H Y102R	0.96
≥ 10	chain 1 Y103M G104M M105L	0.562
≥ 10	chain 1 Y102F G104K	0.81
0.0729	chain 1 T28N V37A	0.941
0.00128	chain 1 T28L D31G	0.717
≥ 10	chain 1 W33N M34F	0.815
≥ 10	chain 1 S101M G104I	0.274
≥ 10	chain 1 Y107W G109K	0.336
≥ 10	chain 1 Y32D W33V	0.594
≥ 10	chain 1 S101P Y107F W108F	0.239
0.0171	chain 1 Y103G	1.14
0.0015	chain 1 T28D S30P	1.24
≥ 10	chain 1 Y103I D106W	0.188
≤ 0.000316	chain 1 T28D V37C	0.886

Kd (fluorescein) [µM]	Variant	yeast surface expression [1]
0.0221	chain 1 Y32F M34L	0.781
≥ 10	chain 1 Y32A W33C	0.924
≥ 10	chain 1 W33E W36L	0.622
≥ 10	chain 1 W33F N35F	0.3
≥ 10	chain 1 Y102L G104W	0.263
≥ 10	chain 1 T28V Y32S V37F	0.818
0.0592	chain 1 W36K V37N	0.168
≥ 10	chain 1 Y103E W108N	0.446
2.01	chain 1 Y103C G104H	0.403
≥ 10	chain 1 T28D F29T W36L	0.514
≥ 10	chain 1 Y102G G109K	0.336
0.0038	chain 1 Y102S M105N	1.31
5.96	chain 1 Y102W M105E	1.02
≥ 10	chain 1 Y107P W108A	0.455
≥ 10	chain 1 Y32E W36N	1.09
≥ 10	chain 1 Y102A Y103K G109C	0.237
≥ 10	chain 1 S101W G104Y	0.203
0.000504	chain 1 Y102A W108P	0.525
≥ 10	chain 1 S101K G104W M105V	0.205
≥ 10	chain 1 Y102P M105S	0.416
≥ 10	chain 1 Y32K N35R	0.103
≥ 10	chain 1 T28Q W33V	1.34
≥ 10	chain 1 Y107S G109C	0.174
≥ 10	chain 1 T28Y F29W	0.672
≥ 10	chain 1 Y107V W108R	0.492
≥ 10	chain 1 Y103N G104F	0.839
≥ 10	chain 1 T28F F29W V37K	0.532

Reference: the FLAb antibody collection (doi:10.7554/elife.23156)
